The values below come from the supplement of paper PMC5998384.

Series [1] deals with HeLa Kyoto. Nature of the series: melting temperature (median over replicates), in situ; higher = more thermally stable.
For series [2], the system named is HeLa Kyoto. As to the kind of experiment: thermal stability score vs G1/S (z-score of summed log2 fold changes over temperatures); higher = more thermally stable than in G1/S.
The test system of series [3] is HeLa Kyoto. As to the kind of experiment: solubility in G1/S (NP-40 vs SDS abundance) (log2 ratio); higher = more soluble. The following applies: cell cycle stage: G1/S.
Series [4] relates to HeLa Kyoto. As to the kind of experiment: solubility change mitosis vs G1/S (difference of NP-40 vs SDS log2 ratios) (log2 ratio difference); higher = more soluble in mitosis.
Where [5] appears, read: cell cycle stage: early G1 (4.5 h after nocodazole release).
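Throughout, for melting temperature (median over replicates), in situ: HeLa Kyoto cells synchronized by double thymidine or nocodazole block, proteins quantified by TMT10plex mass spectrometry, three independent biological replicates.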
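Throughout, for solubility change mitosis vs G1/S (difference of NP-40 vs SDS log2 ratios): synchronized HeLa Kyoto cells (double thymidine block for G1/S, nocodazole release for mitosis), protein amounts in NP-40 versus SDS lysates quantified by mass spectrometry, three biological replicates.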
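Throughout, for solubility in G1/S (NP-40 vs SDS abundance): HeLa Kyoto cells arrested at G1/S by double thymidine block, proteins quantified by TMT10plex mass spectrometry in mild NP-40 versus SDS extracts, three biological replicates.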
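Throughout, for thermal stability score vs G1/S (z-score of summed log2 fold changes over temperatures): synchronized HeLa Kyoto cells, proteins quantified by TMT10plex mass spectrometry, three biological replicates, mitosis taken 0.5 h after nocodazole release, G1/S directly after double thymidine block.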

As for “MAPAMQPAEIQFAQRLASSEKGIRDRAVKKLRQYISVKTQRETGGFSQEELLKIWKGLFYCMWVQDEPLLQEELANTIAQLVHAVNNSAAQHLFIQTFWQTMNREWKGIDRLRLDKYYMLIRLVLRQSFEVLKRNGWEESRIKVFLDVLMKEVLCPESQSPNGVRFHFIDIYLDELSKVGGKELLADQNLKFIDPFCKIAAKTKDHTLVQTIARGVFEAIVDQSPFVPEETMEEQKTKVGDGDLSAEEIPENEVSLRRAVSKKKTALGKNHSRKDGLSDERGRDDCGTFEDTGPLLQFDYKAVADRLLEMTSRKNTPHFNRKRLSKLIKKFQDLSEGSSISQLSFAEDISADEDDQILSQGKHKKKGNKLLEKTNLEKEKGSRVFCVEEEDSESSLQKRRRKKKKKHHLQPENPGPGGAAPSLEQNRGREPEASGLKALKARVAEPGAEATSSTGEESGSEHPPAVPMHNKRKRPRKKSPRAHREMLESAVLPPEDMSQSGPSGSHPQGPRGSPTGGAQLLKRKRKLGVVPVNGSGLSTPAWPPLQQEGPPTGPAEGANSHTTLPQRRRLQKKKAGPGSLELCGLPSQKTASLKKRKKMRVMSNLVEHNGVLESEAGQPQALGSSGTCSSLKKQKLRAESDFVKFDTPFLPKPLFFRRAKSSTATHPPGPAVQLNKTPSSSKKVTFGLNRNMTAEFKKTDKSILVSPTGPSRVAFDPEQKPLHGVLKTPTSSPASSPLVAKKPLTTTPRRRPRAMDFF [RRP1B]”, the melting temperature is 47.9 °C in the series on HeLa Kyoto [1] (cell cycle stage: G1/S) and 49.5 °C in the series on HeLa Kyoto [1] (cell cycle stage: mitosis). The thermal stability score in the series on HeLa Kyoto [2] (setting [5]) is 1.95; in the series on HeLa Kyoto [2] (cell cycle stage: mitosis), 1.97. In addition, the “solubility in G1/S (log2)” value in the series with HeLa Kyoto [3] is -2.01. Moreover, the “solubility change mitosis (log2)” value in the series with HeLa Kyoto [4] was 1.63.

Take “MAPDSDPFPEGPLLKLLPLDARDRGTQRCRLGPAALHALGARLGSAVKISLPDGGSCLCTAWPRRDGADGFVQLDPLCASPGAAVGASRSRRSLSLNRLLLVPCPPLRRVAVWPVLRERAGAPGARNTAAVLEAAQELLRNRPISLGHVVVAPPGAPGLVAALHIVGGTPSPDPAGLVTPRTRVSLGGEPPSEAQPQPEVPLGGLSEAADSLRELLRLPLRYPRALTALGLAVPRGVLLAGPPGVGKTQLVRAVAREAGAELLAVSAPALQGSRPGETEENVRRVFQRARELASRGPSLLFLDEMDALCPQRGSRAPESRVVAQVLTLLDGASGDREVVVVGATNRPDALDPALRRPGRFDREVVIGTPTLKQRKEILQVITSKMPISSHVDLGLLAEMTVGYVGADLTALCREAAMHALLHSEKNQDNPVIDEIDFLEAFKNIQPSSFRSVIGLMDIKPVDWEEIGGLEDVKLKLKQSIEWPLKFPWEFVRMGLTQPKGVLLYGPPGCAKTTLVRALATSCHCSFVSVSGADLFSPFVGDSEKVLSQIFRQARASTPAILFLDEIDSILGARSASKTGCDVQERVLSVLLNELDGVGLKTIERRGSKSSQQEFQEVFNRSVMIIAATNRPDVLDTALLRPGRLDKIIYIPPPDHKGRLSILKVCTKTMPIGPDVSLENLAAETCFFSGADLRNLCTEAALLALQENGLDATTVKQEHFLKSLKTVKPSLSCKDLALYENLFKKEGFSNVEGI [SPATA5L1]”: the melting temperature in the series on HeLa Kyoto [1] (cell cycle stage: G1/S) amounted to 52.8 °C; with HeLa Kyoto [1] (cell cycle stage: mitosis) it was 51.2 °C. Further, the figures for the thermal stability score in the series with HeLa Kyoto [2] (setting [5]) and with HeLa Kyoto [2] (cell cycle stage: mitosis) were -0.664 and -2.04, respectively. In addition, the “solubility in G1/S (log2)” value in the series on HeLa Kyoto [3] is -0.0544. Also, the “solubility change mitosis (log2)” value in the series with HeLa Kyoto [4] was found to be 0.095.

Regarding “MAPGCKTELRSVTNGQSNQPSNEGDAIKVFVRIRPPAERSGSADGEQNLCLSVLSSTSLRLHSNPEPKTFTFDHVADVDTTQESVFATVAKSIVESCMSGYNGTIFAYGQTGSGKTFTMMGPSESDNFSHNLRGVIPRSFEYLFSLIDREKEKAGAGKSFLCKCSFIEIYNEQIYDLLDSASAGLYLREHIKKGVFVVGAVEQVVTSAAEAYQVLSGGWRNRRVASTSMNRESSRSHAVFTITIESMEKSNEIVNIRTSLLNLVDLAGSERQKDTHAEGMRLKEAGNINRSLSCLGQVITALVDVGNGKQRHVCYRDSKLTFLLRDSLGGNAKTAIIANVHPGSRCFGETLSTLNFAQRAKLIKNKAVVNEDTQGNVSQLQAEVKRLKEQLAELASGQTPPESFLTRDKKKTNYMEYFQEAMLFFKKSEQEKKSLIEKVTQLEDLTLKKEKFIQSNKMIVKFREDQIIRLEKLHKESRGGFLPEEQDRLLSELRNEIQTLREQIEHHPRVAKYAMENHSLREENRRLRLLEPVKRAQEMDAQTIAKLEKAFSEISGMEKSDKNQQGFSPKAQKEPCLFANTEKLKAQLLQIQTELNNSKQEYEEFKELTRKRQLELESELQSLQKANLNLENLLEATKACKRQEVSQLNKIHAETLKIITTPTKAYQLHSRPVPKLSPEMGSFGSLYTQNSSILDNDILNEPVPPEMNEQAFEAISEELRTVQEQMSALQAKLDEEEHKNLKLQQHVDKLEHHSTQMQELFSSERIDWTKQQEELLSQLNVLEKQLQETQTKNDFLKSEVHDLRVVLHSADKELSSVKLEYSSFKTNQEKEFNKLSERHMHVQLQLDNLRLENEKLLESKACLQDSYDNLQEIMKFEIDQLSRNLQNFKKENETLKSDLNNLMELLEAEKERNNKLSLQFEEDKENSSKEILKVLEAVRQEKQKETAKCEQQMAKVQKLEESLLATEKVISSLEKSRDSDKKVVADLMNQIQELRTSVCEKTETIDTLKQELKDINCKYNSALVDREESRVLIKKQEVDILDLKETLRLRILSEDIERDMLCEDLAHATEQLNMLTEASKKHSGLLQSAQEELTKKEALIQELQHKLNQKKEEVEQKKNEYNFKMRQLEHVMDSAAEDPQSPKTPPHFQTHLAKLLETQEQEIEDGRASKTSLEHLVTKLNEDREVKNAEILRMKEQLREMENLRLESQQLIEKNWLLQGQLDDIKRQKENSDQNHPDNQQLKNEQEESIKERLAKSKIVEEMLKMKADLEEVQSALYNKEMECLRMTDEVERTQTLESKAFQEKEQLRSKLEEMYEERERTSQEMEMLRKQVECLAEENGKLVGHQNLHQKIQYVVRLKKENVRLAEETEKLRAENVFLKEKKRSES [KIF15]”, the melting temperature with HeLa Kyoto [1] (cell cycle stage: G1/S) was determined as 48.4 °C; in the series on HeLa Kyoto [1] (cell cycle stage: mitosis) it was 49.4 °C. The thermal stability score with HeLa Kyoto [2] (setting [5]) was 0.584; with HeLa Kyoto [2] (cell cycle stage: mitosis), 1.61. Besides, in the series with HeLa Kyoto [3], the “solubility in G1/S (log2)” value worked out at 0.087. For the same sequence, the “solubility change mitosis (log2)” value with HeLa Kyoto [4] was -0.0831.

On to “MAPKFPDSVEELRAAGNESFRNGQYAEASALYGRALRVLQAQGSSDPEEESVLYSNRAACHLKDGNCRDCIKDCTSALALVPFSIKPLLRRASAYEALEKYPMAYVDYKTVLQIDDNVTSAVEGINRMTRALMDSLGPEWRLKLPSIPLVPVSAQKRWNSLPSENHKEMAKSKSKETTATKNRVPSAGDVEKARVLKEEGNELVKKGNHKKAIEKYSESLLCSNLESATYSNRALCYLVLKQYTEAVKDCTEALKLDGKNVKAFYRRAQAHKALKDYKSSFADISNLLQIEPRNGPAQKLRQEVKQNLH [TOMM34]”, for which the melting temperature in the series on HeLa Kyoto [1] (cell cycle stage: G1/S) worked out at 47.4 °C; in the series with HeLa Kyoto [1] (cell cycle stage: mitosis), 48.8 °C. Also, the values for the thermal stability score in the series on HeLa Kyoto [2] (setting [5]) and with HeLa Kyoto [2] (cell cycle stage: mitosis) were 0.535 and 1.04, respectively. The “solubility in G1/S (log2)” value in the series on HeLa Kyoto [3] was found to be 0.584. The “solubility change mitosis (log2)” value with HeLa Kyoto [4] was 0.108.
